One assay concerns the target T1, CeiPGM-γCp(SRR) (synthetic construct, thioether N-14).
T1 chain: {γCp(SRR)}-FSISGIEWNGPEIC
In words: SPR.

A further assay concerns the target T2, CeiPGM-γCp(RSS) (synthetic construct, thioether N-14).
T2 chain: {γCp(RSS)}-FSISGIEWNGPEIC
In words: SPR.

Bridge positions count the residues as written; N and C are the ends. Ends that are not written are not given here. γCp(RSS) = N-terminal (R,S,S)-cyclopropane γ-amino acid; γCp(SRR) = N-terminal (S,R,R)-cyclopropane γ-amino acid

B1: CeiPGM (cofactor-independent phosphoglycerate mutase) (protein)
chain: MFVALGAQIYRQYFGRRGMAMANNSSVANKVCLIVIDGWGVSEDPYGNAILNAQTPVMDKLCSGNWAQIEAHGLHVGLPEGLMGNSEVGHLNIGAGRVIYQDIVRINLAVKNNKFVTNESLVDACDRAKNGNGRLHLAGLVSDGGVHSHIDHMFALVKAIKELGVPELYLHFYGDGRDTSPNSGVGFLEQTLEFLEKTTGYGKLATVVGRYYAMDRDNRWERINVAYEAMIGGVGETSDEAGVVEVVRKRYAADETDEFLKPIILQGEKGRVQNDDTIIFFDYRADRMREISAAMGMDRYKDCNSKLAHPSNLQVYGMTQYKAEFPFKSLFPPASNKNVLAEWLAEQKVSQFHCAETEKYAHVTFFFNGGLEKQFEGEERCLVPSPKVATYDLQPEMSAAGVADKMIEQLEAGTHPFIMCNFAPPDMVGHTGVYEAAVKACEATDIAIGRIYEATQKHGYSLMVTADHGNAEKMKAPDGGKHTAHTCYRVPLTLSHPGFKFVDPADRHPALCDVAPTVLAIMGLPQPAEMTGVSIVQKI
As for B1, the Kd (as a rule, the constant that tells how readily two partners part at equilibrium) in the assay with CeiPGM-γCp(SRR) worked out at 0.8 nM; with CeiPGM-γCp(RSS), 0.3 nM.

Values taken from PMC9547493 (2020).
